Article PMC8117158

Experiments:
[1] = target: IscU^N–GFP (E. coli K-12) (UniProt P0ACD4); assay: split reporter (BiFC, NanoBiT); BiFC by reconstitution of GFP from N-GFP and C-GFP fusions co-expressed in E. coli BL21(DE3) Gold; fluorescence microscopy of cells on agarose slides, normalised to empty vectors
[2] = target: IscS^C–GFP (E. coli K-12) (UniProt P0A6B7); assay: as above
UniProt P0A6B7, sequence (P0A6B7 whole entry): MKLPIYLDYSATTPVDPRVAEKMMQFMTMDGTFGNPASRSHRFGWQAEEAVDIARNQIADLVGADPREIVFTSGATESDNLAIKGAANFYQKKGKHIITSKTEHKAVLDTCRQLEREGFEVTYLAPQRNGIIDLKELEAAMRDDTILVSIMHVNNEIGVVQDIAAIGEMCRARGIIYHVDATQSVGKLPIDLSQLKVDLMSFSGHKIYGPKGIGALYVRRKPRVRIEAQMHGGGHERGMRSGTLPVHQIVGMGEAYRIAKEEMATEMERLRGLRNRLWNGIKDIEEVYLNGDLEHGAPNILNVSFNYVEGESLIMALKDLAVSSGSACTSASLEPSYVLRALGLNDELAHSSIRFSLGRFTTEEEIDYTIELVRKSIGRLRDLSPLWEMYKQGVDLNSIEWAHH

UniProt P0ACD4, sequence (P0ACD4 whole entry, the tested form may be a part): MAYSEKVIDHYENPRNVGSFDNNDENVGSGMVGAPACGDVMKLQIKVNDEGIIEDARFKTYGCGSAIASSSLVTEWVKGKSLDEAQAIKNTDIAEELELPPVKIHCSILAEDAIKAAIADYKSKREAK

Row | Substance | fold fluorescence over the control [1] | fold fluorescence over the control [2]
1 | YtfE^C–GFP (from UniProt P69506 1-220) (natural protein) | 3 fold | –
2 | YtfE^N–GFP (from UniProt P69506 1-220) (natural protein) | – | 6 fold
